Results on five molecules are retold here after article doi:10.1101/2024.05.05.592584 (bioRxiv, 2024).

Test in all cases: BLI
Common to all, as to settings: both partners purified

The target of experiment [1] is SARS-CoV-2 Wuhan-Hu-1 NTD (SARS-CoV-2 Wuhan-Hu-1, UniProt P0DTC2).
In the next experiment the target is T1, SARS-CoV-2 HV.1 NTD (SARS-CoV-2 Omicron HV.1, strain).
T1 chain: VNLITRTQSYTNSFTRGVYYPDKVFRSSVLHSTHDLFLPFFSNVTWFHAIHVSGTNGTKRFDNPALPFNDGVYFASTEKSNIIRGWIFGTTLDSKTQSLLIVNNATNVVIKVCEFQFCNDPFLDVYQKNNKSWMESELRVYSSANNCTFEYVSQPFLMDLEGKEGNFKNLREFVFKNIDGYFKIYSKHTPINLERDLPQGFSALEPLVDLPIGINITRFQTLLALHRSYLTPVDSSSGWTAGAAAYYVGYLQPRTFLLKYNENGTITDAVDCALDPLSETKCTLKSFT

For a further experiment, the target named is SARS-CoV-2 RBD protein (SARS-CoV-2 Wuhan-Hu-1, UniProt P0DTC2).
Experiment [2] concerns the target SARS-CoV-2 Wuhan-Hu-1 NTD protein (SARS-CoV-2 Wuhan-Hu-1, UniProt P0DTC2).
The target in experiment [3] is SARS-CoV-2 RBD-SD1 protein (SARS-CoV-2, Wuhan-Hu-1 lineage (GenBank …, UniProt A0A679G9E9)).
The target in experiment [4] is SARS-CoV-2 Wuhan-Hu-1 RBD (SARS-CoV-2 Wuhan-Hu-1, UniProt P0DTC2).

B1: C1533 IgG (antibody, V domains shown)
VH: QVQLVQSGAEVKKPGSSVKVSCKTSGVIFSRNAFSWVRQAPGQGLEWMGRIIPFLDVTNSAQEFQGRVTLNADKSTSTVYMELSSLRSEDTAIYYCARHNGDPYDFWSGYNTWAGGLDVWGQGTTVTVSS
VL: QSVLTQPPSASGTPGQRVTISCSGSGSNIGSNAVNWYQQLPGTAPKLLIYNQNQRPSGVPDRFSGSKSGTSASLAIGGLQSEDEADYYCATWDDNLSGLVFGGGTKLTVL
notes: copies: 2 + 2
With B1, in experiment [1], the Kd (usually the concentration at which binding is half-saturated) was determined as 0.0171 µM; the dissociation rate constant (koff) – broadly, a measure of how fast the partners let go of each other – is 0.000547 s⁻¹; the association rate constant (kon) (as a rule, the rate constant with which the complex forms) was found to be 32000 M⁻¹ s⁻¹.

B2: C1596 IgG (antibody, V domains shown)
VH: QVQLVQSGAEVKKPGSSVKVSCKASGGTFINYAVTWVRQAPGQGLEWMGGIIPILGIPNYAQKFQGRVTITADKSTSTAYMELSSLRSEDTAVYYCARVPQAGAAQGHYYYYYGMDVWGQGTTVTVSS
VL: not shown
notes: copies: 2 + 2
Take B2: the Kd was found to be 0.125 µM in experiment [1] and 0.553 µM with SARS-CoV-2 HV.1 NTD.

B3: C1596 Fab (Fab, V domains shown)
VH: QVQLVQSGAEVKKPGSSVKVSCKASGGTFINYAVTWVRQAPGQGLEWMGGIIPILGIPNYAQKFQGRVTITADKSTSTAYMELSSLRSEDTAVYYCARVPQAGAAQGHYYYYYGMDVWGQGTTVTVSS
VL: not shown
Take B3: the binding result (with SARS-CoV-2 RBD protein; in experiment [3]) was “no binding” in each case. The dissociation constant Kd in experiment [2] amounted to 0.16 µM.

B4: C1520 IgG (antibody, V domains shown)
VH: EVQLVESGGGLVQPGGSLRLACVASGFTFSIYEMNWVRQAPGKGLEWVSYITTSGHARYNADSVKGRFTISRDNSKNSFYLQMNSLRAEDTAIYYCARPQYHYYDTSTYHSYGFDIWGQGTMVTVSS
VL: QLVLTQSPSASASLGASVNLTCTLSSGHNSYAIAWHQQQPEKGPRYLMSLNSDGSHTKGDGIPDRFSGSSSGAERFLTISSLQSEDEADYYCQTWDTGIRVFGGGTRLTVL
notes: copies: 2 + 2
In experiment [1], B4 returned a Kd of 0.0248 µM, a koff of 0.000393 s⁻¹ and a kon of 15900 M⁻¹ s⁻¹.

B5: C952 IgG (antibody, V domains shown)
VH: EVQLVQSGAEVKKPGESLTISCKDSGNSFTIYWIGWVRQMPGKGLEWMGMIYPGDSGTRYSPSFEGQVTISADESINTAYLQWRSLKASDTAMYYCVRGIAVDWYFDLWGRGTLVTVSS
VL: QSVLTQPPSVSGAPGQRVTISCTGSSSNIGAGFDVHWYQQLPGTAPKLLIYGNNNRPSGVPDRFSGSKSATSASLAITGLQAEDEADYYCQSSDSSLSGLYVFGTGTNVIVL
notes: copies: 2 + 2
For the molecule B5, in experiment [4], the Kd was 0.00635 µM, the koff is 0.00176 s⁻¹ and the association rate constant (kon) is 278000 M⁻¹ s⁻¹.
